Test results: patent CN1905899A (dated 2007)

Molecular target: T1, EphA2 on cells (MDA-MB-231, MCF-10A, A549, MCF-7 EphA2 transfectants, prostate cancer tissue) (human, UniProt P29317 24-976)
T1 construct: whole, on cells; The other cells are human cell lines; also called EphA2受体
Test: immunofluorescence staining of cells

T1 sequence (P29317 24-976): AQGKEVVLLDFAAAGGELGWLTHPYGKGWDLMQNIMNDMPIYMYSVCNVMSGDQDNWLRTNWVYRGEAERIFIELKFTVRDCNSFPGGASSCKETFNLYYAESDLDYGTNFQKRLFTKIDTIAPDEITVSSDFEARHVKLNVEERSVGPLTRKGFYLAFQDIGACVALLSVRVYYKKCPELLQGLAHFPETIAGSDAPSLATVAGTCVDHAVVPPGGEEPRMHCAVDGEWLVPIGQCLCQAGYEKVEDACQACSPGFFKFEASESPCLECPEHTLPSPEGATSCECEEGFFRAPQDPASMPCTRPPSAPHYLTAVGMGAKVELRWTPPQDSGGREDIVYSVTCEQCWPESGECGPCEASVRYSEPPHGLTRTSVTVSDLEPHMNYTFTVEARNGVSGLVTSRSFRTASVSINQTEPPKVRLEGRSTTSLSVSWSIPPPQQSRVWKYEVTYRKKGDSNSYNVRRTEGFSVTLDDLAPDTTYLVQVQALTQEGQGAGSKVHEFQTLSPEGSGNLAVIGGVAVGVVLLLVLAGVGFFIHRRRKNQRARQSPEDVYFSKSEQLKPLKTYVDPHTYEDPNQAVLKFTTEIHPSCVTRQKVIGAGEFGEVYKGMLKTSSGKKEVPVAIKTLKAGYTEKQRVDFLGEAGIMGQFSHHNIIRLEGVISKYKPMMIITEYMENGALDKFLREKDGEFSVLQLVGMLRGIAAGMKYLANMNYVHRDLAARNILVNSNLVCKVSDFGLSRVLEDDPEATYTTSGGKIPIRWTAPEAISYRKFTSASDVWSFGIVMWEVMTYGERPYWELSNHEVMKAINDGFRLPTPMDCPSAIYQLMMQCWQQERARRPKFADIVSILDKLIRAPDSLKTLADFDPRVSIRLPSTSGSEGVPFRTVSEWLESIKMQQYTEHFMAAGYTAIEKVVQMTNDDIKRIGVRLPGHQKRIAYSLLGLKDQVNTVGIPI

B1: EA2 anti-EphA2 monoclonal antibody (hybridoma strain EA2.31, ATCC PTA-4380) (antibody, V domains shown)
VH: DVKLVESGGGLVKPGGSLKLSCAASGFTFSSYTMSWVRQTPEKRLEWVATISSGGTYTYYPDSVKGRFTISRDNAKNTLYLQMSSLKSEDTAMYYCTREAIFTYWGQGTLVTVSA
VL: DIKMTQSPSSMYASLGERVTITCKASQDINNYLSWFQQKPGKSPKTLIYRANRVDGVPSRFSGSGSGQDYSLTISSLEYEDMGIYYCLKYDEFPYTFGGGTKLEIK
notes: Mouse hybridoma monoclonal
B1: binds.
